We go through 2 molecules from publication PMC6829319, “Combination of SAXS and Protein Painting Discloses the Three-Dimensional Organization of the Bacterial Cysteine Synthase Complex, a Potential Target for Enhancers of Antibiotic Action” (International Journal of Molecular Sciences, 2019).

B2: O-acetylserine sulfhydrylase isozyme A (CysK) from E. coli (enzyme)
chain: KIFEDNSLTIGHTPLVRLNRIGNGRILAKVESRNPSFSVKCRIGANMIWDAEKRGVLKPGVELVEPTSGNTGIALAYVAAARGYKLTLTMPETMSIERRKLLKALGANLVLTEGAKGMKGAIQKAEEIVASNPEKYLLLQQFSNPANPEIHEKTTGPEIWEDTDGQVDVFIAGVGTGGTLTGVSRYIKGTKGKTDLISVAVEPTDSPVIAQALAGEEIKPGPHKIQGIGAGFIPANLDLKLVDKVIGITNEEAISTARRLMEEEGILAGISSGAAVAAALKLQEDESFTNKNIVVILPSSGERYLSTALFADLFTEKELQQ
notes: Carries the pyridoxal 5'-phosphate (PLP) cofactor; Dimer; source: E. coli BL21(DE3) or BL21(DE3) Tuner, pET21P vector, purified as previously described [50]

Data set [1] deals with B2. Put plainly: other fluorescence titration; PLP fluorescence emission of CysK at 500 nm after excitation at 412 nm with increasing concentrations of CysE; 20 °C; stoichiometric titration, ratio of CysE to CysK. As to conditions: both partners purified.
Data set [2] concerns the molecule itself. The data set is described as follows: SAXS; solution scattering at 10 °C; 20 mM sodium phosphate, 85 mM NaCl, 2 mM EDTA, 10 mM 2-MCE, pH 7.5; 0.5-1.5 mg/mL; CysK, CysE and CS (gel filtered and dialysed before) each measured; ab initio DAMMIF and SASREF rigid body models.

B1: serine acetyltransferase (CysE) from E. coli (enzyme)
chain: MSCEELEIVWNNIKAEARTLADCEPMLASFYHATLLKHENLGSALSYMLANKLSSPIMPAIAIREVVEEAYAADPEMIASAACDIQAVRTRDPAVDKYSTPLLYLKGFHALQAYRIGHWLWNQGRRALAIFLQNQVSVTFQVDIHPAAKIGRGIMLDHATGIVVGETAVIENDVSILQSVTLGGTGKSGGDRHPKIREGVMIGAGAKILGNIEVGRGAKIGAGSVVLQPVPPHTTAAGVPARIVGKPDSDKPSMDMDQHFNGINHTFEYGDGI
notes: serine acetyltransferase (CysE), E. coli; Hexamer (dimer of trimers); source: E. coli BL21(DE3) or BL21(DE3) Tuner, pSH21p vector, purified, tag removed as previously described [50]
With B1, the figures for the “stoichiometry N” value in data set [1] and in data set [2] were 1.7 and 6, respectively. As for B2, the “stoichiometry N” value in data set [2] was 2.

Usually stoichiometry N stands for the number of molecules, sites or subunits per partner or assembly.
